Source: the supplement of paper PMC10266784

B1: library; numbered along this chain (parent)
chain: MAAAAAAAAEQQSSNGPVKKSMREKAVERRSVNKEHNSNFKAGYIPIDEDRLHKTGLRGRKGNLAICVIILLFILAVINLIITLVIWAVIRIGPNGCDSMEFHESGLLRFKQVSDMGVIHPLYKSTVGGRRNENLVITGNNQPIVFQQGTTKLSVENNKTSITSDIGMQFFDPRTQNILFSTDYETHEFHLPSGVKSLNVQKASTERITSNATSDLNIKVDGRAIVRGNEGVFIMGKTIEFHMGGNMELKAENSIILNGSVMVSTTRLPSSSSGDQLGSGDWVRYKLCMCADGTLFKVQVTSQNMGCQISDNPCGNTH

Variants of: B1
Assay: SGCB cell-surface expression functional score (HA stain, bin4 vs bin1, normalised to synonymous) (log10 ratio); higher = more cell-surface SGCB (functional)
In short: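 Using lentivirus at MOI <0.1, HA-tagged, YFP-fused human beta-sarcoglycan codon-saturation libraries were put into HEK293 cells with stable alpha-, gamma- and delta-sarcoglycan expression, in duplicate transductions. YFP-positive cells were collected by sorting 72 hours later, grown 5–7 days, stained on ice with Alexa Fluor 647 anti-HA, fixed, sorted into four 5% intensity bins and amplicon-sequenced. The functional score takes the median, across codons and transductions, of the log ratio of highest-bin to lowest-bin variant frequency. Within each section, synonymous variants were scaled to mean 0, SD 0.5.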

Variant | SGCB cell-surface expression functional score (log10)
MAAAAAAAAEQQSSNGPVKKSMREKAVERRSVNKEHNSNFKAGYIPIDEDRLHKTGLRGRKGNLAICVIILLFILAVINLIITLVIWAVIRIGPNGCDSMEFHESGLLRFKQVSDMGVIHPLYKSTVGGRRNENLVITGNNQPIVFQQGTTKLSVENNKTSITSDIGMQFFDPRTQNILFSTDYETHEFHLPSGVKSLNVQKASTERITSNATSDLNIKVDGRAIVYGNEGVFIMGKTIEFHMGGNMELKAENSIILNGSVMVSTTRLPSSSSGDQLGSGDWVRYKLCMCADGTLFKVQVTSQNMGCQISDNPCGNTH [R227Y] | 0.15
MAAAAAAAAEQQSSNGPVKKSMREKAVERRSVNKEHNSNFKAGYIPIDEDRLHKTGLRGRKGNLAICVIILLFILAVINLIITLVIWAVIRIGPNGCDSMEFHESGLLRFKQVSDMGVIHPLYKSTVGGRRNENLVITGNNQPIVFQQGTTKLSVENNKTSITSDIGMQFFDPRTQNILFSTDYETHEFHLPSGVKSLNVQKASTERITSNATSDLNIKVDGRAIVWGNEGVFIMGKTIEFHMGGNMELKAENSIILNGSVMVSTTRLPSSSSGDQLGSGDWVRYKLCMCADGTLFKVQVTSQNMGCQISDNPCGNTH [R227W] | 0.59
MAAAAAAAAEQQSSNGPVKKSMREKAVERRSVNKEHNSNFKAGYIPIDEDRLHKTGLRGRKGNLAICVIILLFILAVINLIITLVIWAVIRIGPNGCDSMEFHESGLLRFKQVSDMGVIHPLYKSTVGGRRNENLVITGNNQPIVFQQGTTKLSVENNKTSITSDIGMQFFDPRTQNILFSTDYETHEFHLPSGVKSLNVQKASTERITSNATSDLNIKVDGRAIVVGNEGVFIMGKTIEFHMGGNMELKAENSIILNGSVMVSTTRLPSSSSGDQLGSGDWVRYKLCMCADGTLFKVQVTSQNMGCQISDNPCGNTH [R227V] | 0.81
MAAAAAAAAEQQSSNGPVKKSMREKAVERRSVNKEHNSNFKAGYIPIDEDRLHKTGLRGRKGNLAICVIILLFILAVINLIITLVIWAVIRIGPNGCDSMEFHESGLLRFKQVSDMGVIHPLYKSTVGGRRNENLVITGNNQPIVFQQGTTKLSVENNKTSITSDIGMQFFDPRTQNILFSTDYETHEFHLPSGVKSLNVQKASTERITSNATSDLNIKVDGRAIVSGNEGVFIMGKTIEFHMGGNMELKAENSIILNGSVMVSTTRLPSSSSGDQLGSGDWVRYKLCMCADGTLFKVQVTSQNMGCQISDNPCGNTH [R227S] | 0.71
MAAAAAAAAEQQSSNGPVKKSMREKAVERRSVNKEHNSNFKAGYIPIDEDRLHKTGLRGRKGNLAICVIILLFILAVINLIITLVIWAVIRIGPNGCDSMEFHESGLLRFKQVSDMGVIHPLYKSTVGGRRNENLVITGNNQPIVFQQGTTKLSVENNKTSITSDIGMQFFDPRTQNILFSTDYETHEFHLPSGVKSLNVQKASTERITSNATSDLNIKVDGRAIVTGNEGVFIMGKTIEFHMGGNMELKAENSIILNGSVMVSTTRLPSSSSGDQLGSGDWVRYKLCMCADGTLFKVQVTSQNMGCQISDNPCGNTH [R227T] | 0.88
MAAAAAAAAEQQSSNGPVKKSMREKAVERRSVNKEHNSNFKAGYIPIDEDRLHKTGLRGRKGNLAICVIILLFILAVINLIITLVIWAVIRIGPNGCDSMEFHESGLLRFKQVSDMGVIHPLYKSTVGGRRNENLVITGNNQPIVFQQGTTKLSVENNKTSITSDIGMQFFDPRTQNILFSTDYETHEFHLPSGVKSLNVQKASTERITSNATSDLNIKVDGRAIVRPNEGVFIMGKTIEFHMGGNMELKAENSIILNGSVMVSTTRLPSSSSGDQLGSGDWVRYKLCMCADGTLFKVQVTSQNMGCQISDNPCGNTH [G228P] | -1.47
MAAAAAAAAEQQSSNGPVKKSMREKAVERRSVNKEHNSNFKAGYIPIDEDRLHKTGLRGRKGNLAICVIILLFILAVINLIITLVIWAVIRIGPNGCDSMEFHESGLLRFKQVSDMGVIHPLYKSTVGGRRNENLVITGNNQPIVFQQGTTKLSVENNKTSITSDIGMQFFDPRTQNILFSTDYETHEFHLPSGVKSLNVQKASTERITSNATSDLNIKVDGRAIVRQNEGVFIMGKTIEFHMGGNMELKAENSIILNGSVMVSTTRLPSSSSGDQLGSGDWVRYKLCMCADGTLFKVQVTSQNMGCQISDNPCGNTH [G228Q] | -1.35
MAAAAAAAAEQQSSNGPVKKSMREKAVERRSVNKEHNSNFKAGYIPIDEDRLHKTGLRGRKGNLAICVIILLFILAVINLIITLVIWAVIRIGPNGCDSMEFHESGLLRFKQVSDMGVIHPLYKSTVGGRRNENLVITGNNQPIVFQQGTTKLSVENNKTSITSDIGMQFFDPRTQNILFSTDYETHEFHLPSGVKSLNVQKASTERITSNATSDLNIKVDGRAIVRDNEGVFIMGKTIEFHMGGNMELKAENSIILNGSVMVSTTRLPSSSSGDQLGSGDWVRYKLCMCADGTLFKVQVTSQNMGCQISDNPCGNTH [G228D] | -1.5
MAAAAAAAAEQQSSNGPVKKSMREKAVERRSVNKEHNSNFKAGYIPIDEDRLHKTGLRGRKGNLAICVIILLFILAVINLIITLVIWAVIRIGPNGCDSMEFHESGLLRFKQVSDMGVIHPLYKSTVGGRRNENLVITGNNQPIVFQQGTTKLSVENNKTSITSDIGMQFFDPRTQNILFSTDYETHEFHLPSGVKSLNVQKASTERITSNATSDLNIKVDGRAIVRCNEGVFIMGKTIEFHMGGNMELKAENSIILNGSVMVSTTRLPSSSSGDQLGSGDWVRYKLCMCADGTLFKVQVTSQNMGCQISDNPCGNTH [G228C] | 0.31
MAAAAAAAAEQQSSNGPVKKSMREKAVERRSVNKEHNSNFKAGYIPIDEDRLHKTGLRGRKGNLAICVIILLFILAVINLIITLVIWAVIRIGPNGCDSMEFHESGLLRFKQVSDMGVIHPLYKSTVGGRRNENLVITGNNQPIVFQQGTTKLSVENNKTSITSDIGMQFFDPRTQNILFSTDYETHEFHLPSGVKSLNVQKASTERITSNATSDLNIKVDGRAIVRANEGVFIMGKTIEFHMGGNMELKAENSIILNGSVMVSTTRLPSSSSGDQLGSGDWVRYKLCMCADGTLFKVQVTSQNMGCQISDNPCGNTH [G228A] | 0.3
MAAAAAAAAEQQSSNGPVKKSMREKAVERRSVNKEHNSNFKAGYIPIDEDRLHKTGLRGRKGNLAICVIILLFILAVINLIITLVIWAVIRIGPNGCDSMEFHESGLLRFKQVSDMGVIHPLYKSTVGGRRNENLVITGNNQPIVFQQGTTKLSVENNKTSITSDIGMQFFDPRTQNILFSTDYETHEFHLPSGVKSLNVQKASTERITSNATSDLNIKVDGRAIVRFNEGVFIMGKTIEFHMGGNMELKAENSIILNGSVMVSTTRLPSSSSGDQLGSGDWVRYKLCMCADGTLFKVQVTSQNMGCQISDNPCGNTH [G228F] | -0.64
MAAAAAAAAEQQSSNGPVKKSMREKAVERRSVNKEHNSNFKAGYIPIDEDRLHKTGLRGRKGNLAICVIILLFILAVINLIITLVIWAVIRIGPNGCDSMEFHESGLLRFKQVSDMGVIHPLYKSTVGGRRNENLVITGNNQPIVFQQGTTKLSVENNKTSITSDIGMQFFDPRTQNILFSTDYETHEFHLPSGVKSLNVQKASTERITSNATSDLNIKVDGRAIVRNNEGVFIMGKTIEFHMGGNMELKAENSIILNGSVMVSTTRLPSSSSGDQLGSGDWVRYKLCMCADGTLFKVQVTSQNMGCQISDNPCGNTH [G228N] | -0.63
MAAAAAAAAEQQSSNGPVKKSMREKAVERRSVNKEHNSNFKAGYIPIDEDRLHKTGLRGRKGNLAICVIILLFILAVINLIITLVIWAVIRIGPNGCDSMEFHESGLLRFKQVSDMGVIHPLYKSTVGGRRNENLVITGNNQPIVFQQGTTKLSVENNKTSITSDIGMQFFDPRTQNILFSTDYETHEFHLPSGVKSLNVQKASTERITSNATSDLNIKVDGRAIVRMNEGVFIMGKTIEFHMGGNMELKAENSIILNGSVMVSTTRLPSSSSGDQLGSGDWVRYKLCMCADGTLFKVQVTSQNMGCQISDNPCGNTH [G228M] | -0.15
MAAAAAAAAEQQSSNGPVKKSMREKAVERRSVNKEHNSNFKAGYIPIDEDRLHKTGLRGRKGNLAICVIILLFILAVINLIITLVIWAVIRIGPNGCDSMEFHESGLLRFKQVSDMGVIHPLYKSTVGGRRNENLVITGNNQPIVFQQGTTKLSVENNKTSITSDIGMQFFDPRTQNILFSTDYETHEFHLPSGVKSLNVQKASTERITSNATSDLNIKVDGRAIVRRNEGVFIMGKTIEFHMGGNMELKAENSIILNGSVMVSTTRLPSSSSGDQLGSGDWVRYKLCMCADGTLFKVQVTSQNMGCQISDNPCGNTH [G228R] | -0.47
MAAAAAAAAEQQSSNGPVKKSMREKAVERRSVNKEHNSNFKAGYIPIDEDRLHKTGLRGRKGNLAICVIILLFILAVINLIITLVIWAVIRIGPNGCDSMEFHESGLLRFKQVSDMGVIHPLYKSTVGGRRNENLVITGNNQPIVFQQGTTKLSVENNKTSITSDIGMQFFDPRTQNILFSTDYETHEFHLPSGVKSLNVQKASTERITSNATSDLNIKVDGRAIVRKNEGVFIMGKTIEFHMGGNMELKAENSIILNGSVMVSTTRLPSSSSGDQLGSGDWVRYKLCMCADGTLFKVQVTSQNMGCQISDNPCGNTH [G228K] | -1.33
MAAAAAAAAEQQSSNGPVKKSMREKAVERRSVNKEHNSNFKAGYIPIDEDRLHKTGLRGRKGNLAICVIILLFILAVINLIITLVIWAVIRIGPNGCDSMEFHESGLLRFKQVSDMGVIHPLYKSTVGGRRNENLVITGNNQPIVFQQGTTKLSVENNKTSITSDIGMQFFDPRTQNILFSTDYETHEFHLPSGVKSLNVQKASTERITSNATSDLNIKVDGRAIVRINEGVFIMGKTIEFHMGGNMELKAENSIILNGSVMVSTTRLPSSSSGDQLGSGDWVRYKLCMCADGTLFKVQVTSQNMGCQISDNPCGNTH [G228I] | -1.44
MAAAAAAAAEQQSSNGPVKKSMREKAVERRSVNKEHNSNFKAGYIPIDEDRLHKTGLRGRKGNLAICVIILLFILAVINLIITLVIWAVIRIGPNGCDSMEFHESGLLRFKQVSDMGVIHPLYKSTVGGRRNENLVITGNNQPIVFQQGTTKLSVENNKTSITSDIGMQFFDPRTQNILFSTDYETHEFHLPSGVKSLNVQKASTERITSNATSDLNIKVDGRAIVRHNEGVFIMGKTIEFHMGGNMELKAENSIILNGSVMVSTTRLPSSSSGDQLGSGDWVRYKLCMCADGTLFKVQVTSQNMGCQISDNPCGNTH [G228H] | -1.79
MAAAAAAAAEQQSSNGPVKKSMREKAVERRSVNKEHNSNFKAGYIPIDEDRLHKTGLRGRKGNLAICVIILLFILAVINLIITLVIWAVIRIGPNGCDSMEFHESGLLRFKQVSDMGVIHPLYKSTVGGRRNENLVITGNNQPIVFQQGTTKLSVENNKTSITSDIGMQFFDPRTQNILFSTDYETHEFHLPSGVKSLNVQKASTERITSNATSDLNIKVDGRAIVRENEGVFIMGKTIEFHMGGNMELKAENSIILNGSVMVSTTRLPSSSSGDQLGSGDWVRYKLCMCADGTLFKVQVTSQNMGCQISDNPCGNTH [G228E] | -0.84
MAAAAAAAAEQQSSNGPVKKSMREKAVERRSVNKEHNSNFKAGYIPIDEDRLHKTGLRGRKGNLAICVIILLFILAVINLIITLVIWAVIRIGPNGCDSMEFHESGLLRFKQVSDMGVIHPLYKSTVGGRRNENLVITGNNQPIVFQQGTTKLSVENNKTSITSDIGMQFFDPRTQNILFSTDYETHEFHLPSGVKSLNVQKASTERITSNATSDLNIKVDGRAIVRLNEGVFIMGKTIEFHMGGNMELKAENSIILNGSVMVSTTRLPSSSSGDQLGSGDWVRYKLCMCADGTLFKVQVTSQNMGCQISDNPCGNTH [G228L] | -1.15
